Data from US20260256927A1 (Merck Sharp & Dohme, published 2026).

T1: IL-2Rα-Fc (Acro Biosystems, catalog #ILA-H5251) (UniProt P01589 22-217, limits assumed)
T1 construct: Bought reagent; Captured on an anti-Fc chip as SPR ligand; also called CD25; not shown: Fc part of the bought fusion
T1 sequence (looked up): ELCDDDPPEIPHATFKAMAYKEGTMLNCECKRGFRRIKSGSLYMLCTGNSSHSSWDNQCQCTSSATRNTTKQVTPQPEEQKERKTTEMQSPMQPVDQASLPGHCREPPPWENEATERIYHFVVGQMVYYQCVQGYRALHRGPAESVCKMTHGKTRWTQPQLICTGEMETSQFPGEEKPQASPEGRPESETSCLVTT

T2: IL-2Rβ-Fc (Acro Biosystems, catalog #ILB-H5253) (UniProt P14784 27-239, limits assumed)
T2 construct: Bought reagent; Captured on an anti-Fc chip as SPR ligand; also called CD122; not shown: Fc part of the bought fusion
T2 sequence (looked up): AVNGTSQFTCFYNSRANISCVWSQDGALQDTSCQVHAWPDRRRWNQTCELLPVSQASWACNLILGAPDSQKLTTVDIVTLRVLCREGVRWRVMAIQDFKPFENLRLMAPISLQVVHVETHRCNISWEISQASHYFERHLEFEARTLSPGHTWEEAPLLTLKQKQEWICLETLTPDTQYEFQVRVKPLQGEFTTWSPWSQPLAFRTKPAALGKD

B1: Ald-6HIS_K34pAMF (SP9833) conjugated to DBCO 2 x 10 kDa PEG (PEG2) (ligand)
chain: MPTSSSTKKTQLQLEHLLLDLQMILNGINNYKNPFLTRMLTFKFYMPKKATELKHLQCLEEELKPLEEVLNLAQSKNFHLRPRDLISNINVIVLELKGSETTFMCEYADETATIVEFLNRWITFSQSIISTLTGGSHHHHHH
modifications: X35 = pAMF (K34) conjugated to branched 20 kDa PEG (DBCO 2 x 10 kDa PEG, PEG2)
notes: also called SP9833 PEG2 conjugated
B2: Ald-6HIS_K34pAMF (SP9833), unconjugated (ligand)
chain: MPTSSSTKKTQLQLEHLLLDLQMILNGINNYKNPFLTRMLTFKFYMPKKATELKHLQCLEEELKPLEEVLNLAQSKNFHLRPRDLISNINVIVLELKGSETTFMCEYADETATIVEFLNRWITFSQSIISTLTGGSHHHHHH
modifications: X35 = pAMF (K34 in SEQ ID NO: 2/3 numbering)
notes: also called Aldesleukin-6His K34TAG p-azidomethyl-L-phenylalanine

Assays:
[1] = molecular target: T1, IL-2Rα-Fc (Acro Biosystems, catalog …); test: SPR (Biacore T200), kinetic; receptor-Fc captured on anti-Fc CM5 chip, IL-2 variant as analyte; conjugated to DBCO 2 x 10 kDa PEG (PEG2)
Procedure: (§1) Anti-Fc polyclonal antibodies were immobilized onto a CM5 chip (GE Life Sciences) using amine coupling chemistry (from Amine Coupling Kit, GE Life Sciences). The immobilization steps were carried out at a flow rate of 25 μL/minute in 1×HBS-EP+ buffer (GE Life Sciences; 10× Stock diluted before use). The sensor surfaces were activated for 7 minutes with a mixture of NHS (0.05 M) and EDC (0.2 M). The anti-Fc antibodies were injected over all four flow cells at a concentration of 25 μg/mL in 10 mM sodium acetate, pH 4.5, for seven minutes. Ethanolamine (1 M, pH 8.5) was injected for seven minutes to block any remaining activated groups.
(§2) Kinetic binding experiments were performed at 25° C. using 1×HBS-EP+ with 0.05% BSA buffer. IL-2Rα-Fc or IL-2Rβ-Fc (Acro Biosystems, catalog #ILA-H5251, ILB-H5253) was injected over the anti-Fc surface at concentrations of 3-10 μg/mL for 12 seconds at a flow rate of 10 μL/minute on flow cells 2, 3 and 4, followed by a buffer wash for 30 seconds at the same flow rate. Kinetic characterization of conjugated or unconjugated aldesleukin or variants was carried out in a range of concentrations from 1 nM-10 μM and one injection of no antigen. After capturing ligand (IL-2Rα-Fc or IL-2Rβ-Fc) on the anti-Fc surface, the analyte (IL-2 variant) was bound for 60 seconds, followed by a 180 second dissociation phase at a flow rate of 50 μL/min. […]

[2] = molecular target: T2, IL-2Rβ-Fc (Acro Biosystems, catalog …); test: SPR (Biacore T200), kinetic; receptor-Fc captured on anti-Fc CM5 chip, IL-2 variant as analyte
Procedure: as §1
Kinetic binding experiments were performed at 25° C. using 1×HBS-EP+ with 0.05% BSA buffer. IL-2Rα-Fc or IL-2Rβ-Fc (Acro Biosystems, catalog #ILA-H5251, ILB-H5253) was injected over the anti-Fc surface at concentrations of 3-10 μg/mL for 12 seconds at a flow rate of 10 μL/minute on flow cells 2, 3 and 4, followed by a buffer wash for 30 seconds at the same flow rate. Kinetic characterization of conjugated or unconjugated aldesleukin or variants was carried out in a range of concentrations from 1 nM-10 μM and one injection of no antigen. After capturing ligand (IL-2Rα-Fc or IL-2Rβ-Fc) on the anti-Fc surface, the analyte (IL-2 variant) was bound for 60 seconds, followed by a 180 second dissociation phase at a flow rate of 50 μL/min. Between each ligand capture and analyte binding cycle, regeneration was carried out using two injections of 10 mM Glycine pH 1.5 for 30 seconds at 30 μL/minute, followed by a 30 second buffer wash step.

[3] = molecular target: T1, IL-2Rα-Fc (Acro Biosystems, catalog …); test: SPR (Biacore T200), kinetic; receptor-Fc captured on anti-Fc CM5 chip, IL-2 variant as analyte; unconjugated (pAMF incorporated, no PEG)
Procedure: as §1, §2

Binder	Kd [1] [nM]	Kd [2] [nM]	Kd [3] [nM]
B1	800		
B2		300	7
